Data taken from paper PMC8920335.

Legend:
[1] = immunoblot after BMA or MG132 treatment; conditions: glycan lost; control: WT CGA
[2] = immunoblot of lysates and conditioned medium; conditions: glycan lost; control: WT CGA

Sequence	degradation_or_half_life [1]	expression_or_secretion [2]
CGA (glycoprotein hormone α polypeptide): N52Q	changes	decreases
CGA (glycoprotein hormone α polypeptide): N78Q	changes	decreases
CGA (glycoprotein hormone α polypeptide): N52Q/N78Q double mutant (DM)	–	decreases
